Consider one molecule from US20110039770A1 (PHARMAGAP, published 2011).

Assay [1] has as its target T1, PKC-ε (endogenous, IMR-32 lysate) (human, UniProt Q02156 1-737).
T1 construct: Band 1 and Band 2 (alternate splicing variants, not identified further) are kept under one molecule; the band is named in the assay field of each row; also called PKC-epsilon; PKC-ε Band 1
T1 sequence (looked up): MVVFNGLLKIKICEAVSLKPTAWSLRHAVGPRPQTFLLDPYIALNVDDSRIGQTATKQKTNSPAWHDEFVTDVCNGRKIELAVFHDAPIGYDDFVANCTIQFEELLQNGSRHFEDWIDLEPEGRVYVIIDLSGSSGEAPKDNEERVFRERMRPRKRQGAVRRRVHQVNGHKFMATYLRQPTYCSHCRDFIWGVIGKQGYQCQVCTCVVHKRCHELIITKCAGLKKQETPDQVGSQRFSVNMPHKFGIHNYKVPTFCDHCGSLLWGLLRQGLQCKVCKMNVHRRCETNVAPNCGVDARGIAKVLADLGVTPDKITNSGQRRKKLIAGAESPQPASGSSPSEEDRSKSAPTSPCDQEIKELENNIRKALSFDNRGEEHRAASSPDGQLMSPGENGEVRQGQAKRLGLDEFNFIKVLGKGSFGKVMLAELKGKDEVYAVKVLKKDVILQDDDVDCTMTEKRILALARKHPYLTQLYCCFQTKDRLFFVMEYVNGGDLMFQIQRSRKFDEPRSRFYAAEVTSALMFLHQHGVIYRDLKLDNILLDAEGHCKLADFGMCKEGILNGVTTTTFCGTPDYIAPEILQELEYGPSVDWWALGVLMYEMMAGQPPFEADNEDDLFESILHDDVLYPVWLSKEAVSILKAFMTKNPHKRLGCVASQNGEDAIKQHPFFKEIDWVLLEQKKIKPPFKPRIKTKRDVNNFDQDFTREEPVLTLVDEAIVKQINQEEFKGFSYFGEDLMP
The experiment in a line: WB competition Protocol B, IMR-32 extract, vs anti-PKC-ε Ab; PKC-ε Band 1; 20 µg peptide. The procedure:
(§1) The ability of the peptides PRE 2 and PRE 3 (see Table 4) to interfere with the binding of a PKC-α-specific polyclonal antibody (Santa Cruz Biotechnology, Inc.) to PKC-α was determined using a modified version of the protocol outlined above in which the test peptide was added directly to the cell extract prior to electrophoresis at a concentration of either 5× or 15× the concentration of the protein applied to each well of the gel for the Western blots (20 μg).
(§2) Peptides PRE 2, PRE 3 and PRE 4 (see Table 4) were tested for their ability to interfere with the binding of isoform-specific polyclonal antibodies (Santa Cruz Biotechnology, Inc.) to […] using the general protocol described in Example 3. Two bands, representing alternate splicing variants of PKC-ε, were identified on the Western blot using this anti-PKC-ε antibody.

For assay [2], the target named is T2, PKC-βII (purified isoform) (Homo sapiens (Human), UniProt P05771 2-621).
T2 construct: also called PKC-beta II; PKC beta 2
T2 sequence (P05771 other isoform, or with tags, fused parts or gaps limits assumed): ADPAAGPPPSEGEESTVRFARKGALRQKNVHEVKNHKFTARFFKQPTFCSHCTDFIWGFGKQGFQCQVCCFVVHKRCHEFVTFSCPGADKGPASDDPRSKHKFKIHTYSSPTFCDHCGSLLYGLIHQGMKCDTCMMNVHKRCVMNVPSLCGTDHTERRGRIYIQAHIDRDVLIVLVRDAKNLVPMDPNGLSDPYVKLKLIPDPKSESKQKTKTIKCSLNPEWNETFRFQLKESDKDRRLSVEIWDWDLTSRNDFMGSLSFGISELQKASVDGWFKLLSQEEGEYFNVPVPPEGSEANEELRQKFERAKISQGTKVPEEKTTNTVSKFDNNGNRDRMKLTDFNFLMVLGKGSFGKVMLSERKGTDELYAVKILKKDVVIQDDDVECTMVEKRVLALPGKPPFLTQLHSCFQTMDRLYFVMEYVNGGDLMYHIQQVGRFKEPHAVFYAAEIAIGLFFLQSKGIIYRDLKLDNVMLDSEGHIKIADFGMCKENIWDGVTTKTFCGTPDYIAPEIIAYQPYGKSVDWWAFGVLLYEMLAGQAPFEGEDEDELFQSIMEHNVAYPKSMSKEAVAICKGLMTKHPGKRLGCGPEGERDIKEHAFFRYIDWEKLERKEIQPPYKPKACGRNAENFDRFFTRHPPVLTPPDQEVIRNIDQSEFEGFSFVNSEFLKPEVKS
The experiment in a line: competitive ELISA, coated purified PKC-βII, vs anti-PKC βII (SC-210); PRE 50 µM. The procedure: (§3) Greiner 96 well ELISA plates were coated with the appropriate PKC isoform diluted in PBSN (PBS with Calcium/Magnesium+0.05% Sodium azide w/w). 50 μL/well at 250 ng/mL was used. Control wells contained PBSN only. Plates were incubated overnight at 4° C.
(§4) The plates were washed 3 times with 200 μL of dH₂O per well, then 100 μL of blocking solution was added per well and the plate incubated for 1 h at 37° C. The washing steps with dH₂O were repeated and 50 μL of the appropriate PRE solution (PRE stock solution [20 mM in DMSO] diluted in PBSN) was added and the plate incubated for 1 h at room temperature.
(§5) 50 μL of 1:1000 dilution of Alkaline Phosphatase (AP) conjugated antibody (anti-rabbit for all except zeta, which was anti-goat) was then added and the plate incubated for 1 h at room temperature. Washing with dH₂O was then repeated. Finally, 100 μL of pNPP solution in pNPP buffer (2 mM MgCl₂, 100 mM Sodium bicarbonate in water, pH 9.8) was added to all wells and incubated for 8 minutes for α, βI, βII ε, and ζ, or for 15-20 mins for δ (until sufficient coloration is observed). The reaction was stopped by addition of Stop solution (2N NaOH) and the absorbance at 405 nm was read on a Galaxy Plate reader.

Assay [3] has as its target T2, PKC-βII (purified isoform). The experiment in a line: competitive ELISA, coated purified PKC-βII, vs anti-PKC βII (SC-210); PRE 200 µM. The procedure: as §3, §4, §5
Assay [4] concerns the target T3, PKC-βI (purified isoform) (Homo sapiens (Human), UniProt P05771 2-671).
T3 construct: also called PKC-beta I; PKC beta 1
In words: competitive ELISA, coated purified PKC-βI, vs anti-PKC βI (SC-209); PRE 200 µM.

Assay [5] concerns the target T1, PKC-ε (endogenous, IMR-32 lysate). In words: WB competition Protocol B, IMR-32 extract, vs anti-PKC-ε Ab; PKC-ε Band 2; 50 µg peptide. On the procedure: as §1, §2
Another assay deals with T4, PKC-α (purified isoform) (Homo sapiens (Human), UniProt P17252 2-672).
T4 construct: also called purified PKC-alpha; commercially purified PKC-alpha
The experiment in a line: competitive ELISA, coated purified PKC-α, vs anti-PKC α (SC-208); PRE 200 µM. In a few lines:
(§6)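 Plates coated overnight at 4 °C with purified PKC isoform at 250 ng/mL, blocked, then exposed 1 h at room temperature to PRE (from 20 mM DMSO stock) diluted in PBS with Ca/Mg. Bound isoform antibody detected with AP-conjugated secondary and pNPP (8 min; δ 15–20 min), absorbance 405 nm.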

The next assay concerns the target T5, PKC-δ (purified isoform).
T5 construct: also called PKC-delta
The experiment in a line: competitive ELISA, coated purified PKC-δ, vs anti-PKC δ (SC-213); PRE 50 µM. Summed up:
as §6

T3 sequence (P05771 2-671 limits assumed): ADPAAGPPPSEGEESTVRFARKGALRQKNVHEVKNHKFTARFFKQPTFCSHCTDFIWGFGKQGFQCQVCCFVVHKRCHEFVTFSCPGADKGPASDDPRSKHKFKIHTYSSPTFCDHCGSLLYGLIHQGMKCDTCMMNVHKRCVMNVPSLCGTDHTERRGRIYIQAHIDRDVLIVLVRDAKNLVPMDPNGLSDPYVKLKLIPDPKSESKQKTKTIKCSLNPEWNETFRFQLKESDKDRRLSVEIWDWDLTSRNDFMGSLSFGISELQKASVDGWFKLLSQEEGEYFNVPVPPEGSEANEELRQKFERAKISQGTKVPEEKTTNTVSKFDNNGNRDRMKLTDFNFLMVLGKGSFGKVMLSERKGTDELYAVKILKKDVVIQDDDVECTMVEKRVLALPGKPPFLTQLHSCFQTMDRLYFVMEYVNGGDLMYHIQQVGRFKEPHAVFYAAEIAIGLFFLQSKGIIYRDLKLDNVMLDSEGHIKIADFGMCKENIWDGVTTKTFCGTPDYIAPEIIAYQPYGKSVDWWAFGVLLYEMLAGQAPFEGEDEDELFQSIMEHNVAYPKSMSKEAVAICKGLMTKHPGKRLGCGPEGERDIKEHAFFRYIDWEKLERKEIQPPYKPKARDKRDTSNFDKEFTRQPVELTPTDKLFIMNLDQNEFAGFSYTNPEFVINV
T5 sequence (Q05655 whole entry, stated change not applied, canonical isoform): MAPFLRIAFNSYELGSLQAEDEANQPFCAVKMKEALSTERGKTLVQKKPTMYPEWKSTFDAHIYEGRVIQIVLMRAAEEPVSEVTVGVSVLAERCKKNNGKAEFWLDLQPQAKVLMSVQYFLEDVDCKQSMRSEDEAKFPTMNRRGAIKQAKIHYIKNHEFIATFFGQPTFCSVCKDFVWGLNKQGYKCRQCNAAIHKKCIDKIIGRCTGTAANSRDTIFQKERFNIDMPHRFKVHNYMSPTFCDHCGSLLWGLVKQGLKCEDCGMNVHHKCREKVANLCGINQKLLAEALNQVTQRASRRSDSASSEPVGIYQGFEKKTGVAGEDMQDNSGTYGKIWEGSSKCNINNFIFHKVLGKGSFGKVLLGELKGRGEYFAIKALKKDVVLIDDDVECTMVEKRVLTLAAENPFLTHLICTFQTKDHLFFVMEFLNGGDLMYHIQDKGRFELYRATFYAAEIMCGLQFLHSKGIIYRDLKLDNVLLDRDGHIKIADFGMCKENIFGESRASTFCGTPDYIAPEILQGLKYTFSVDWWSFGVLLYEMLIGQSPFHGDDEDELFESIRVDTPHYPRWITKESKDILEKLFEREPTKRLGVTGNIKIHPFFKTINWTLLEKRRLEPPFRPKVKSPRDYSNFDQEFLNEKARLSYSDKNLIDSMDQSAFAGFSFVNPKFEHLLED

Turning to Ac-KDAQNLIGISI-NH2 (also called peptide PRE 4) [PRE 4], the “Band Intensity” value was determined as 184 in assay [1] and 0 in assay [5]. Further, the “Inhibition (%)” value in assay [1] amounted to 42.9%; in assay [5], 100%. In addition, the “Relative Intensity (%)” value was determined as 57.1% in assay [1] and 0% in assay [5]. Moreover, the “relative binding capacity (100-%n, DMSO subtracted)” value in assay [2] amounted to 2.69%; in assay [3], 1.18%; in assay [4] it was 7.46%; with PKC-α (purified isoform) it was 22.8%; in the assay with PKC-δ (purified isoform), 29.2%.
